# Target: human Toll-like Receptor 2, wild type (human) (UniProt O60603)
# Assay: cell-based or functional assay
# Sequence of UniProt O60603 (O60603 21-784 D726E limits assumed): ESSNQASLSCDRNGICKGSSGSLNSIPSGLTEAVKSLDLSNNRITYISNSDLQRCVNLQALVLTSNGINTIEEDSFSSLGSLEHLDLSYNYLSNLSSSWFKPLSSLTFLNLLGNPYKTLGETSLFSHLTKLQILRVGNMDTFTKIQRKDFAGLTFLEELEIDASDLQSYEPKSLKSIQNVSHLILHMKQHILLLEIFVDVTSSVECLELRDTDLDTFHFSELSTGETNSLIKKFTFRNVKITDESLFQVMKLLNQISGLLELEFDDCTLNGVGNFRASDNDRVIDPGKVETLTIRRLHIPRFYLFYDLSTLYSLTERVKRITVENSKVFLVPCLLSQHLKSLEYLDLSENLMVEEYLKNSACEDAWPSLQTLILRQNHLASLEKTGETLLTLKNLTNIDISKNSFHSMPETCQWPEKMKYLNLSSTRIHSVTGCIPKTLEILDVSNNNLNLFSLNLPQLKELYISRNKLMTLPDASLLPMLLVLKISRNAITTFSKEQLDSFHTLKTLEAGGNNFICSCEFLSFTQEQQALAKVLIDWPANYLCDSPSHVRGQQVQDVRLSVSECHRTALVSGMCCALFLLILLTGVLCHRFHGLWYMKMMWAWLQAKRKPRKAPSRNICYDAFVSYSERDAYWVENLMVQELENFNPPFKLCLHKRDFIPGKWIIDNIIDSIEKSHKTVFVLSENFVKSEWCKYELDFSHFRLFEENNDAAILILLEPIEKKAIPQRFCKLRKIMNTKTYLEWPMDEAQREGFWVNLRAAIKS
substance,measurement,value
"OPN-301 anti-TLR2 monoclonal antibody (mouse Toll-like Receptor 2 (TLR2) antibody, clone T2.5, HyCult Biotechnology)",TNF-alpha production from U937 cells stimulated with 100 ng/ml Pam3CSK4,30 ng/mL

# From patent US20100143336A1
